Reference: patent US20180155451A1 (published 2018)
Where two headings read alike, the source gives them in different places.

T1: FcγRIIb (human, UniProt P31994 43-217)
T1 construct: extracellular domain; also called FcgRIIb; 2b; not shown: His tag at the C terminus
T1 sequence (looked up): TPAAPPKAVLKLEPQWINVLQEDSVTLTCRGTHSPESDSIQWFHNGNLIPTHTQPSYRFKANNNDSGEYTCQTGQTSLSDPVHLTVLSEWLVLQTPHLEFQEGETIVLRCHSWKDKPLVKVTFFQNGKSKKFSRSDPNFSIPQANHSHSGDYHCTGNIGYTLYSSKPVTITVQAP

B1: GpH7-A5/GpH7-B3 variant L328_02A/GpL16-k0 (antibody, human IgG1, kappa)
heavy 1: not shown
heavy 2: not shown
light: DIVMTQSPLSLPVTPGEPASISCQASESLVHSNRNTYLHWYLQKPGQSPQLLIYKVSNRFSGVPDRFSGSGSGTDFTLKISRVEAEDVGVYYCSQNTHVPPTFGQGTKVEIERTVAAPSVFIFPPSDEQLKSGTASVVCLLNNFYPREAKVQWKVDNALQSGNSQESVTEQDSKDSTYSLSSTLTLSKADYEKHKVYACEVTHQGLSSPVTKSFNRGEC
notes: heterodimerized IgG1; alteration in the GpH7-B3 H chain only; also called He Ab
B2: GpH7-A5/GpH7-B3 variant L328_04F/GpL16-k0 (antibody, human IgG1, kappa)
heavy 1: not shown
heavy 2: not shown
light: DIVMTQSPLSLPVTPGEPASISCQASESLVHSNRNTYLHWYLQKPGQSPQLLIYKVSNRFSGVPDRFSGSGSGTDFTLKISRVEAEDVGVYYCSQNTHVPPTFGQGTKVEIERTVAAPSVFIFPPSDEQLKSGTASVVCLLNNFYPREAKVQWKVDNALQSGNSQESVTEQDSKDSTYSLSSTLTLSKADYEKHKVYACEVTHQGLSSPVTKSFNRGEC
notes: as for B1
B3: GpH7-A5/GpH7-B3 variant L328_06M/GpL16-k0 (antibody, human IgG1, kappa)
heavy 1: not shown
heavy 2: not shown
light: DIVMTQSPLSLPVTPGEPASISCQASESLVHSNRNTYLHWYLQKPGQSPQLLIYKVSNRFSGVPDRFSGSGSGTDFTLKISRVEAEDVGVYYCSQNTHVPPTFGQGTKVEIERTVAAPSVFIFPPSDEQLKSGTASVVCLLNNFYPREAKVQWKVDNALQSGNSQESVTEQDSKDSTYSLSSTLTLSKADYEKHKVYACEVTHQGLSSPVTKSFNRGEC
notes: as for B1
B4: GpH7-A5/GpH7-B3 variant N325_06M/GpL16-k0 (antibody, human IgG1, kappa)
heavy 1: not shown
heavy 2: not shown
light: DIVMTQSPLSLPVTPGEPASISCQASESLVHSNRNTYLHWYLQKPGQSPQLLIYKVSNRFSGVPDRFSGSGSGTDFTLKISRVEAEDVGVYYCSQNTHVPPTFGQGTKVEIERTVAAPSVFIFPPSDEQLKSGTASVVCLLNNFYPREAKVQWKVDNALQSGNSQESVTEQDSKDSTYSLSSTLTLSKADYEKHKVYACEVTHQGLSSPVTKSFNRGEC
notes: as for B1
B5: GpH7-A5/GpH7-B3 variant N325_07I/GpL16-k0 (antibody, human IgG1, kappa)
heavy 1: not shown
heavy 2: not shown
light: DIVMTQSPLSLPVTPGEPASISCQASESLVHSNRNTYLHWYLQKPGQSPQLLIYKVSNRFSGVPDRFSGSGSGTDFTLKISRVEAEDVGVYYCSQNTHVPPTFGQGTKVEIERTVAAPSVFIFPPSDEQLKSGTASVVCLLNNFYPREAKVQWKVDNALQSGNSQESVTEQDSKDSTYSLSSTLTLSKADYEKHKVYACEVTHQGLSSPVTKSFNRGEC
notes: as for B1
B6: GpH7-A5/GpH7-B3 variant N325_08L/GpL16-k0 (antibody, human IgG1, kappa)
heavy 1: not shown
heavy 2: not shown
light: DIVMTQSPLSLPVTPGEPASISCQASESLVHSNRNTYLHWYLQKPGQSPQLLIYKVSNRFSGVPDRFSGSGSGTDFTLKISRVEAEDVGVYYCSQNTHVPPTFGQGTKVEIERTVAAPSVFIFPPSDEQLKSGTASVVCLLNNFYPREAKVQWKVDNALQSGNSQESVTEQDSKDSTYSLSSTLTLSKADYEKHKVYACEVTHQGLSSPVTKSFNRGEC
notes: as for B1
B7: GpH7-A5/GpH7-B3 variant P331_16H/GpL16-k0 (antibody, human IgG1, kappa)
heavy 1: not shown
heavy 2: not shown
light: DIVMTQSPLSLPVTPGEPASISCQASESLVHSNRNTYLHWYLQKPGQSPQLLIYKVSNRFSGVPDRFSGSGSGTDFTLKISRVEAEDVGVYYCSQNTHVPPTFGQGTKVEIERTVAAPSVFIFPPSDEQLKSGTASVVCLLNNFYPREAKVQWKVDNALQSGNSQESVTEQDSKDSTYSLSSTLTLSKADYEKHKVYACEVTHQGLSSPVTKSFNRGEC
notes: as for B1

Experiments:
FcγRIa [1] = target: T2, FcγRIa (human, UniProt P12314 16-292); experiment: SPR (Biacore), antibody captured, FcγR as analyte; binding as % of GpH7-A5/GpH7-B3/GpL16-k0
T2 construct: extracellular domain; also called FcgRI; 1a; not shown: His tag at the C terminus

FcγRIIb [2] = target: T1, FcγRIIb; experiment: as above
FcγRIa [3] = target: T2, FcγRIa; experiment: SPR (Biacore); He/Con_1a (FcγRIa) divided by He/Con_2b (FcγRIIb)
FcγRIa [4] = target: T2, FcγRIa; experiment: SPR (Biacore), antibody captured, FcγR as analyte; binding as % of GpH7-A5/GpH7-B3/GpL16-k0; remark: listed apart in the source
FcγRIIb [5] = target: T1, FcγRIIb; experiment: as above; remark: listed apart in the source

T2 sequence (P12314 16-292): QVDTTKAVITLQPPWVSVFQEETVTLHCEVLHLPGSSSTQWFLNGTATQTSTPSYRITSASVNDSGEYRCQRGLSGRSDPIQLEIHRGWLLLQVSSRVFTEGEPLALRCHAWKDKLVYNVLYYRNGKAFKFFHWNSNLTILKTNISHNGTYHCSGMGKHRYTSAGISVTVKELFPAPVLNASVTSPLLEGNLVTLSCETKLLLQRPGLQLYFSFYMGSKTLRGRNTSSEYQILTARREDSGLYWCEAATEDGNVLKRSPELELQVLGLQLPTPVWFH

Binder	He/Con_1a (FcγRIa [1])	He/Con_2b (FcγRIIb [2])	Ia/IIb He_1a/2b (FcγRIa [3])	He/Con_1a (FcγRIa [4])	He/Con_2b (FcγRIIb [5])
B1	98.5 % of control	144 % of control	0.68 ratio	98.5 % of control	144 % of control
B2	97.9 % of control	219 % of control	0.45 ratio	97.9 % of control	219 % of control
B3	98.7 % of control	142 % of control	0.7 ratio	98.7 % of control	142 % of control
B4	97.6 % of control	217 % of control	0.45 ratio		
B5	94.8 % of control	171 % of control	0.55 ratio		
B6	97.5 % of control	197 % of control	0.5 ratio		
B7	92.4 % of control	116 % of control	0.8 ratio		
